From patent publication US20250034248A1 (ALBERT EINSTEIN COLLEGE OF MEDICINE, published 2025) come the findings set out here.

Where two headings read alike, the source gives them in different places.

Assay [1] concerns the target T1, human Tim-3 protein (human, UniProt Q8TDQ0 22-202, limits assumed). As to the kind of experiment: Surface plasmon resonance.
Assay [2] addresses T1, human Tim-3 protein. Nature of the assay: surface plasmon resonance.
In assay [3] the target is T1, human Tim-3 protein. Nature of the assay: surface plasmon resonance. This is another data set of the same source.
Assay [4] has as its target T2, mouse Tim-3 expressed on cell lines (mouse, UniProt Q8VIM0 20-281).
T2 construct: whole, on cells
As to the kind of experiment: FACS on cell lines expressing mouse Tim-3.

B1: mAb 15B4 (antibody, V domains shown)
VH: EVQLQQSGAEVVRPGALVKLSCKASGFNIKDYYMHWVRQRPEQGLEWIGWIDPENDNTIYDPKFQDRASITADTSSNTAYLQLSSLTSEDTAVYYCARDFGYVAWLVYWGQGTLVTVSA
VL: DIVMTQSQEFMSTSVGDRVSITCKASQNVDTAVAWYQQKPGQSPKLLIYSASNRYTGVPDRFTGTGSGTDFTLTINNMQSEDLADYFCQQYSSYPTFGGRTKLEIKR
notes: Mouse hybridoma antibody, IgG1 with kappa chain
Take B1: the Kd with human Tim-3 protein [1] worked out at 0.32 nM. In the assay with human Tim-3 protein [2], this molecule came in with a koff of 0.00029 s⁻¹ and a kon of 910000 M⁻¹ s⁻¹.

B2: mAb 50B5 (antibody, V domains shown)
VH: EVQLQQSGPELVKPGASMKISCKASGYSFTGYTINWVKQSHGKNLEWIGLFNPYNGGTTFNQKFKGKATLTVDKSSSTAYMELLSLTSEDSAVYYCARRYYGYDAMDYWGQGTSVTVSS
VL: NIMMTQSPSSLAVSAGEKVTMSCKSSQSVLYSSNQKNHLAWYQQKPGQSPKLLIYWASTRESGVPDRFTGSGSGTDFTLTISSVQAEDLAVYYCHQYLSSYTFGGGTKLEIK
notes: as for B1
In the assay with human Tim-3 protein [1], B2 gave a Kd of 0.13 nM. Further, in the assay with human Tim-3 protein [3], the koff came to 2.35e-05 s⁻¹ and the kon is 187000 M⁻¹ s⁻¹. For the same molecule, the binding result in assay [4] is “no binding”.
